Among the data in paper PMC4369318 are LTx as percent of total LF (animal 16N, terminal stage) and LTx as percent of total LF (animal 89N, terminal stage) values, retold here.

The target of this assay is protective antigen (PA63 as LTx) in plasma or serum of subjects with inhalation anthrax (Bacillus anthracis (secreted during infection of rhesus macaques and humans)). Put plainly: co-IP.
Sequence of protective antigen (PA63 as LTx) in plasma or serum of subjects with inhalation anthrax (Bacillus anthracis (secreted during infection of rhesus macaques and humans)) (P13423 30-764): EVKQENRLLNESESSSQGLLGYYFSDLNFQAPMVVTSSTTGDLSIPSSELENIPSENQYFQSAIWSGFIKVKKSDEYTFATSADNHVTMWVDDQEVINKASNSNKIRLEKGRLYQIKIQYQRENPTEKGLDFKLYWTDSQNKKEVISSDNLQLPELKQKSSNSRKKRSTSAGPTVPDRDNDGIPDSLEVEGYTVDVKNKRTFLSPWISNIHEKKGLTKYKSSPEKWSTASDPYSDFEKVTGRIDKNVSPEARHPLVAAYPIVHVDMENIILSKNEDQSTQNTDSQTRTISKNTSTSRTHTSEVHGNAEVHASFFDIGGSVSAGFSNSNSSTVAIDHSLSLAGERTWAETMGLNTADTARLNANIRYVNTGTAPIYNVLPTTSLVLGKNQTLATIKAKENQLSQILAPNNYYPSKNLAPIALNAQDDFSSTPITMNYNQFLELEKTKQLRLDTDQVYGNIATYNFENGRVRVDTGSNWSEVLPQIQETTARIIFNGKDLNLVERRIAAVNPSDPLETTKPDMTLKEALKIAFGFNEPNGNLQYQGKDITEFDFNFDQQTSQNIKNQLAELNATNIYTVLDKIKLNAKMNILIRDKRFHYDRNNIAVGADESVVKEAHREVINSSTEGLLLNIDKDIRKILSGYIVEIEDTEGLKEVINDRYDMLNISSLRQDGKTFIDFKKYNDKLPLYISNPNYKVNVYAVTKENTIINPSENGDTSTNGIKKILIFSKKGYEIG

The substance “lethal factor (LF) in plasma or serum of subjects with inhalation anthrax (from UniProt P15917 34-809) (enzyme)” registered an LTx as percent of total LF (animal 16N, terminal stage) of 100% and an LTx as percent of total LF (animal 89N, terminal stage) of 60%.
